Assay results as given in article PMC9508125, “The evolutionary advantage of an aromatic clamp in plant family 3 glycoside exo-hydrolases” (Nature Communications, 2022).

What was measured:
[1] = substrate: O=[N+]([O-])c1ccc(O[C@@H]2O[C@H](CO)[C@@H](O)[C@H](O)[C@H]2O)cc1; assay: Steady-state apparent kinetic constants with substrates; format: biochemical, Hordeum vulgare; conditions: substance is the substrate, pH 5.25, 30.0 °C
[2] = substrate: OC[C@H]1O[C@@H](O[C@H]2[C@H](O)[C@@H](CO)OC(O)[C@@H]2O)[C@H](O)[C@@H](O)[C@@H]1O; assay: as above; format: biochemical, Hordeum vulgare; conditions: substance is the substrate, pH 5.25, 30.0 °C

B1: HvExoI W286F mutant (Hordeum vulgare subsp. vulgare; W311F) (protein)
chain: DYVLYKDATKPVEDRVADLLGRMTLAEKIGQMTQIERLVATPDVLRDNFIGSLLSGGGSVPRKGATAKEWQDMVDGFQKACMSTRLGIPMIYGIDAVHGQNNVYGATIFPHNVGLGATRDPYLVKRIGEATALEVRATGIQYAFAPCIAVCRDPRWGRCYESYSEDRRIVQSMTELIPGLQGDVPKDFTSGMPFVAGKNKVAACAKHFVGDGGTVDGINENNTIINREGLMNIHMPAYKNAMDKGVSTVMISYSSWNGVKMHANQDLVTGYLKDTLKFKGFVISDFEGIDRITTPAGSDYSYSVKASILAGLDMIMVPNNYQQFISILTGHVNGGVIPMSRIDDAVTRILRVKFTMGLFENPYADPAMAEQLGKQEHRDLAREAARKSLVLLKNGKTSTDAPLLPLPKKAPKILVAGSHADNLGYQCGGWTIEWQGDTGRTTVGTTILEAVKAAVDPSTVVVFAENPDAEFVKSGGFSYAIVAVGEHPYTETKGDNLNLTIPEPGLSTVQAVCGGVRCATVLISGRPVVVQPLLAASDALVAAWLPGSEGQGVTDALFGDFGFTGRLPRTWFKSVDQLPMNVGDAHYDPLFRLGYGLTTNATKKY
In the case of B1, the Km ([1]; other: W286F) is reported as 2.4 ± 0.3 mM, the kcat ([1]; other: W286F) is reported as 1.9 ± 0.1 s⁻¹ and the kcat/Km ([1]; other: W286F) is reported as 0.8 ± 0.01 mM⁻¹ s⁻¹. It also gave a Km ([2]; other: W286F) of 0.4 ± 0.04 mM, a kcat ([2]; other: W286F) of 2.6 ± 0.2 s⁻¹ and a kcat/Km ([2]; other: W286F) of 5.8 ± 0.4 mM⁻¹ s⁻¹.

B2: HvExoI W286Y mutant (Hordeum vulgare subsp. vulgare; W311Y) (protein)
chain: DYVLYKDATKPVEDRVADLLGRMTLAEKIGQMTQIERLVATPDVLRDNFIGSLLSGGGSVPRKGATAKEWQDMVDGFQKACMSTRLGIPMIYGIDAVHGQNNVYGATIFPHNVGLGATRDPYLVKRIGEATALEVRATGIQYAFAPCIAVCRDPRWGRCYESYSEDRRIVQSMTELIPGLQGDVPKDFTSGMPFVAGKNKVAACAKHFVGDGGTVDGINENNTIINREGLMNIHMPAYKNAMDKGVSTVMISYSSWNGVKMHANQDLVTGYLKDTLKFKGFVISDYEGIDRITTPAGSDYSYSVKASILAGLDMIMVPNNYQQFISILTGHVNGGVIPMSRIDDAVTRILRVKFTMGLFENPYADPAMAEQLGKQEHRDLAREAARKSLVLLKNGKTSTDAPLLPLPKKAPKILVAGSHADNLGYQCGGWTIEWQGDTGRTTVGTTILEAVKAAVDPSTVVVFAENPDAEFVKSGGFSYAIVAVGEHPYTETKGDNLNLTIPEPGLSTVQAVCGGVRCATVLISGRPVVVQPLLAASDALVAAWLPGSEGQGVTDALFGDFGFTGRLPRTWFKSVDQLPMNVGDAHYDPLFRLGYGLTTNATKKY
B2 was tested, and the Km ([1]; other: W286Y) was 2.0 ± 0.1 mM, the kcat ([1]; other: W286Y) was 28.8 ± 2.9 s⁻¹ and the kcat/Km ([1]; other: W286Y) was 14.6 ± 1.5 mM⁻¹ s⁻¹. It also gave a Km ([2]; other: W286Y) of 0.4 ± 0.04 mM, a kcat ([2]; other: W286Y) of 20.7 ± 1.7 s⁻¹ and a kcat/Km ([2]; other: W286Y) of 52.6 ± 1.5 mM⁻¹ s⁻¹.

B3: HvExoI W434A mutant (Hordeum vulgare subsp. vulgare; W459A) (protein)
chain: DYVLYKDATKPVEDRVADLLGRMTLAEKIGQMTQIERLVATPDVLRDNFIGSLLSGGGSVPRKGATAKEWQDMVDGFQKACMSTRLGIPMIYGIDAVHGQNNVYGATIFPHNVGLGATRDPYLVKRIGEATALEVRATGIQYAFAPCIAVCRDPRWGRCYESYSEDRRIVQSMTELIPGLQGDVPKDFTSGMPFVAGKNKVAACAKHFVGDGGTVDGINENNTIINREGLMNIHMPAYKNAMDKGVSTVMISYSSWNGVKMHANQDLVTGYLKDTLKFKGFVISDWEGIDRITTPAGSDYSYSVKASILAGLDMIMVPNNYQQFISILTGHVNGGVIPMSRIDDAVTRILRVKFTMGLFENPYADPAMAEQLGKQEHRDLAREAARKSLVLLKNGKTSTDAPLLPLPKKAPKILVAGSHADNLGYQCGGWTIEAQGDTGRTTVGTTILEAVKAAVDPSTVVVFAENPDAEFVKSGGFSYAIVAVGEHPYTETKGDNLNLTIPEPGLSTVQAVCGGVRCATVLISGRPVVVQPLLAASDALVAAWLPGSEGQGVTDALFGDFGFTGRLPRTWFKSVDQLPMNVGDAHYDPLFRLGYGLTTNATKKY
With B3 the Km ([1]; other: W434A) was 0.5 ± 0.1 mM, the kcat ([1]; other: W434A) was 9.5 ± 0.7 s⁻¹ and the kcat/Km ([1]; other: W434A) was 17.6 ± 1.8 mM⁻¹ s⁻¹. For the same protein, the Km ([2]; other: W434A) was 2.1 ± 0.2 mM, the kcat ([2]; other: W434A) was 2.6 ± 0.2 s⁻¹ and the kcat/Km ([2]; other: W434A) was 1.3 ± 0.1 mM⁻¹ s⁻¹.

B4: HvExoI W434F mutant (Hordeum vulgare subsp. vulgare; W459F) (protein)
chain: DYVLYKDATKPVEDRVADLLGRMTLAEKIGQMTQIERLVATPDVLRDNFIGSLLSGGGSVPRKGATAKEWQDMVDGFQKACMSTRLGIPMIYGIDAVHGQNNVYGATIFPHNVGLGATRDPYLVKRIGEATALEVRATGIQYAFAPCIAVCRDPRWGRCYESYSEDRRIVQSMTELIPGLQGDVPKDFTSGMPFVAGKNKVAACAKHFVGDGGTVDGINENNTIINREGLMNIHMPAYKNAMDKGVSTVMISYSSWNGVKMHANQDLVTGYLKDTLKFKGFVISDWEGIDRITTPAGSDYSYSVKASILAGLDMIMVPNNYQQFISILTGHVNGGVIPMSRIDDAVTRILRVKFTMGLFENPYADPAMAEQLGKQEHRDLAREAARKSLVLLKNGKTSTDAPLLPLPKKAPKILVAGSHADNLGYQCGGWTIEFQGDTGRTTVGTTILEAVKAAVDPSTVVVFAENPDAEFVKSGGFSYAIVAVGEHPYTETKGDNLNLTIPEPGLSTVQAVCGGVRCATVLISGRPVVVQPLLAASDALVAAWLPGSEGQGVTDALFGDFGFTGRLPRTWFKSVDQLPMNVGDAHYDPLFRLGYGLTTNATKKY
For B4, the Km ([1]; other: W434F) was 0.6 ± 0.04 mM, the kcat ([1]; other: W434F) was 6.6 ± 0.7 s⁻¹ and the kcat/Km ([1]; other: W434F) was 12.7 ± 2.1 mM⁻¹ s⁻¹. The Km ([2]; other: W434F) was 1.7 ± 0.2 mM, the kcat ([2]; other: W434F) was 17.1 ± 1.6 s⁻¹ and the kcat/Km ([2]; other: W434F) was 9.9 ± 1.2 mM⁻¹ s⁻¹.

B5: HvExoI W434H mutant (Hordeum vulgare subsp. vulgare; W459H) (protein)
chain: DYVLYKDATKPVEDRVADLLGRMTLAEKIGQMTQIERLVATPDVLRDNFIGSLLSGGGSVPRKGATAKEWQDMVDGFQKACMSTRLGIPMIYGIDAVHGQNNVYGATIFPHNVGLGATRDPYLVKRIGEATALEVRATGIQYAFAPCIAVCRDPRWGRCYESYSEDRRIVQSMTELIPGLQGDVPKDFTSGMPFVAGKNKVAACAKHFVGDGGTVDGINENNTIINREGLMNIHMPAYKNAMDKGVSTVMISYSSWNGVKMHANQDLVTGYLKDTLKFKGFVISDWEGIDRITTPAGSDYSYSVKASILAGLDMIMVPNNYQQFISILTGHVNGGVIPMSRIDDAVTRILRVKFTMGLFENPYADPAMAEQLGKQEHRDLAREAARKSLVLLKNGKTSTDAPLLPLPKKAPKILVAGSHADNLGYQCGGWTIEHQGDTGRTTVGTTILEAVKAAVDPSTVVVFAENPDAEFVKSGGFSYAIVAVGEHPYTETKGDNLNLTIPEPGLSTVQAVCGGVRCATVLISGRPVVVQPLLAASDALVAAWLPGSEGQGVTDALFGDFGFTGRLPRTWFKSVDQLPMNVGDAHYDPLFRLGYGLTTNATKKY
With B5 the Km ([1]; other: W434H) was 2.2 ± 0.2 mM, the kcat ([1]; other: W434H) was 7.7 ± 0.6 s⁻¹ and the kcat/Km ([1]; other: W434H) was 3.5 ± 0.4 mM⁻¹ s⁻¹. For the same protein, the Km ([2]; other: W434H) was 1.7 ± 0.4 mM, the kcat ([2]; other: W434H) was 51.8 ± 2.0 s⁻¹ and the kcat/Km ([2]; other: W434H) was 31.3 ± 7.3 mM⁻¹ s⁻¹.

B6: HvExoI W434Y mutant (Hordeum vulgare subsp. vulgare; W459Y) (protein)
chain: DYVLYKDATKPVEDRVADLLGRMTLAEKIGQMTQIERLVATPDVLRDNFIGSLLSGGGSVPRKGATAKEWQDMVDGFQKACMSTRLGIPMIYGIDAVHGQNNVYGATIFPHNVGLGATRDPYLVKRIGEATALEVRATGIQYAFAPCIAVCRDPRWGRCYESYSEDRRIVQSMTELIPGLQGDVPKDFTSGMPFVAGKNKVAACAKHFVGDGGTVDGINENNTIINREGLMNIHMPAYKNAMDKGVSTVMISYSSWNGVKMHANQDLVTGYLKDTLKFKGFVISDWEGIDRITTPAGSDYSYSVKASILAGLDMIMVPNNYQQFISILTGHVNGGVIPMSRIDDAVTRILRVKFTMGLFENPYADPAMAEQLGKQEHRDLAREAARKSLVLLKNGKTSTDAPLLPLPKKAPKILVAGSHADNLGYQCGGWTIEYQGDTGRTTVGTTILEAVKAAVDPSTVVVFAENPDAEFVKSGGFSYAIVAVGEHPYTETKGDNLNLTIPEPGLSTVQAVCGGVRCATVLISGRPVVVQPLLAASDALVAAWLPGSEGQGVTDALFGDFGFTGRLPRTWFKSVDQLPMNVGDAHYDPLFRLGYGLTTNATKKY
Protein B6 has a Km ([1]; other: W434Y) of 0.3 ± 0.03 mM, a kcat ([1]; other: W434Y) of 1.2 ± 0.1 s⁻¹ and a kcat/Km ([1]; other: W434Y) of 3.5 ± 0.4 mM⁻¹ s⁻¹. It also gave a Km ([2]; other: W434Y) of 0.6 ± 0.1 mM, a kcat ([2]; other: W434Y) of 2.0 ± 0.1 s⁻¹ and a kcat/Km ([2]; other: W434Y) of 3.3 ± 0.3 mM⁻¹ s⁻¹.

B7: WT HvExoI (Hordeum vulgare subsp. vulgare) (protein)
chain: DYVLYKDATKPVEDRVADLLGRMTLAEKIGQMTQIERLVATPDVLRDNFIGSLLSGGGSVPRKGATAKEWQDMVDGFQKACMSTRLGIPMIYGIDAVHGQNNVYGATIFPHNVGLGATRDPYLVKRIGEATALEVRATGIQYAFAPCIAVCRDPRWGRCYESYSEDRRIVQSMTELIPGLQGDVPKDFTSGMPFVAGKNKVAACAKHFVGDGGTVDGINENNTIINREGLMNIHMPAYKNAMDKGVSTVMISYSSWNGVKMHANQDLVTGYLKDTLKFKGFVISDWEGIDRITTPAGSDYSYSVKASILAGLDMIMVPNNYQQFISILTGHVNGGVIPMSRIDDAVTRILRVKFTMGLFENPYADPAMAEQLGKQEHRDLAREAARKSLVLLKNGKTSTDAPLLPLPKKAPKILVAGSHADNLGYQCGGWTIEWQGDTGRTTVGTTILEAVKAAVDPSTVVVFAENPDAEFVKSGGFSYAIVAVGEHPYTETKGDNLNLTIPEPGLSTVQAVCGGVRCATVLISGRPVVVQPLLAASDALVAAWLPGSEGQGVTDALFGDFGFTGRLPRTWFKSVDQLPMNVGDAHYDPLFRLGYGLTTNATKKY
B7 gave a Km ([1]; other: WT) of 2.0 ± 0.15 mM, a kcat ([1]; other: WT) of 27.7 ± 2.5 s⁻¹ and a kcat/Km ([1]; other: WT) of 13.9 ± 0.6 mM⁻¹ s⁻¹.
